{
  "source": "patent US20040253243",
  "key": {"[1]": {"target": "PDGF-BB (Homo sapiens) (UniProt P01127)", "sequence (P01127 82-190)": "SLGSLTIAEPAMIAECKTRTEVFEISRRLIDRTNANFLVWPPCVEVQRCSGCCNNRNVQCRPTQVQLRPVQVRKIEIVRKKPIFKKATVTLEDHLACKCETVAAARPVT", "conditions": "[PEG40K]-NH2-dCdAdGdGdCfUdAfCmG-PEG-dCdGTdAmGdAmGdCdAfUfCmA-PEG-TdGdATfCfCfUmG-3T (f 2'-F, m 2'-OMe, d deoxy; PEG spacers)"}, "[2]": {"target": "PDGF-AB (Homo sapiens) (UniProt P04085+P01127)", "sequence (P01127 82-190, chain 2 of 2, other chains not shown)": "as the sequence (P01127 82-190) above", "conditions": "[PEG40K]-NH2-dCdAdGdGdCfUdAfCmG-PEG-dCdGTdAmGdAmGdCdAfUfCmA-PEG-TdGdATfCfCfUmG-3T (f 2'-F, m 2'-OMe, d deoxy; PEG spacers)"}},
  "data": [
    {"sequence": "CAGGCUACGCGTAGAGCAUCATGATCCUG [ARC127]", "values": [
      {"measurement": "Kd", "setting": "[1]", "value": 0.1, "unit": "nM"},
      {"measurement": "Kd", "setting": "[2]", "value": 0.1, "unit": "nM"}
    ]}
  ]
}
